For the data set, the target named is L30 (ribosomal protein L30) wild-type (rat) (UniProt P62890). Nature of the data set: EMSA. As to conditions: 30 mM Tris-HCl pH 8.0, 75 mM KCl, 5 mM MgCl2, 1 mM DTT, 0.04 ug/uL BSA, 10% glycerol, 50 ng/uL yeast tRNA, 30 C 15 min; EMSA gels 0.5X TBE at 4 C; RNase …. On the technique in general: In EMSA bound probe runs differently from free probe, usually more slowly.

Broadly, the Kd is the equilibrium constant for the complex coming apart. PHGPx SECIS 102 nt (REMSA) yielded a Kd of 490 nM.

For the origin of these results see publication PMC3706390.
